{"source": "paper PMC8265312", "key": {"[1]": {"target": "endogenous huGAPDH on the surface of dying A549 cells (human (endogenous in A549)) (UniProt P04406)", "test": "competition of binding to cells, cell-bound PspA detected by immunoblot"}, "[2]": {"target": "recombinant human GAPDH (human) (UniProt P04406)", "test": "SPR"}}}
{"substance": "recombinant His-tagged PspA (pneumococcal surface protein A) composed of the αHD and PRD (domain or fragment)", "values": [{"measurement": "percent reduction of cell-bound PspA by GAPDH70", "setting": "[1]", "result": 50, "unit": "%"}, {"measurement": "Kd", "setting": "[2]", "result": 2950, "unit": "nM"}]}
